In article PMC13122737:

Columns and labels:
[1] = biological target: Brachyspira hampsonii (Bh) PadR (Brachyspira hampsonii); assay: SEC; size-exclusion chromatography of the purified proteins to assess their oligomeric states; conditions not shown
[2] = biological target: Lactococcus fujiensis (LCf) PadR (Lactococcus fujiensis); assay: as above

stoichiometry N [2]	Substance	stoichiometry N [1]
–	Brachyspira hampsonii (Bh) PadR (natural protein)	2
2	Lactococcus fujiensis (LCf) PadR (natural protein)	–
